Results as given in patent US12655398B2, “Multipartite luciferase” (Promega Corporation, priority 2018, dated 2026).

Assays:
p65 = assay: Nuclear translocation assay (p65-HiBiT HeLa cells, LgBiT*-nuclear sensor); assay type: cell-based; conditions: for Time to reach maximum accumulation of p65 in the nucleus upon stimulation: real time measurement
Source text: A nuclear translocation assay was developed using measuring p65 movement from cytosol to the nucleus under TNFa stimulus. The nuclear translocation assay was set up similar to the membrane translocation assay. […] The assay allows measurement of protein translocation in real time.

[1] = tested on: SmTrip10 pep86 and SmTrip9 pep245; assay: LgTrip 2098 activation by separate β9 and β10-like peptides; assay type: biochemical; conditions: 10× concentrated lysate, peptides at 500 nM
Protocol: The luminescence of LgTrip 2098 (SEQ ID NO: 31) was monitored over time in the presence of separate peptides corresponding to the β10 and β9 portions of the full-length luciferase (SmTrip10 pep86 (SEQ ID NO: 25) and SmTrip9 pep245) (SEQ ID NO: 23) (FIG. 2). Similar experimental protocols were used as in Example 1; however, a 10× concentrated lysate was used, Peptides SmTrip10 pep86 and SmTrip9 pep245 were used at 500 nM, and 0.001% Prionex added to reactions. […] Controls with no peptides added or only one of the peptides added produced near the background of the plate reader.

SmTrip10 pep86 / pep263 = assay: Luminescence of LgBiT and LgTrip 2098 E. coli lysates with complementary peptide; assay type: biochemical; conditions: E. coli lysate, 25 nM peptide
Protocol: (275 rpm) in a volume of 50 mL. From these cultures, 100× dilutions were made into the same media and the cultures grown at 37 C (275 rpm) for 3 h and then cooled to 25° C. before adding rhamnose (inducing agent for protein overexpression) to a final concentration of 0.2%. Cultures were then grown (induced) for 22 h at 25° C. (275 rpm) at which time cultures were harvested, and the resulting pellets stored at −20° C. until processing. To lyse cells, pellets were removed from −20° C., resuspended in 50 mL of PBS pH 7.2, and taken through 3 sequential freeze thaw cycles (−70° C. to 22° C.), centrifuged to produce soluble fractions, and then kept cold (on ice) until assaying. Lysates and peptide(s) (25 nm final concentration) were incubated together for 10 minutes at 25° C. prior to the addition of NanoGlo® reagent. After addition of reagent, plates were incubated for another 5 min at 35° C. and read over time to measure luminescence (RLU) using a Tecan Infinite F500 plate reader.

[2] = Effect of urea on activity; assay type: physicochemical
Protocol: To test activity in the presence of urea, each enzyme was diluted to 1 uM in TBS+0.01% BSA+0.01% Tergitol and further diluted to 2 nM in TBS+0.01% BSA+0.01% Tergitol. […] A two-fold titration series was prepared for each, starting with 10M urea in 25 mM Tris pH 7.5+0.01% Tergitol. 10 uM furimazine was added to each sample of the titration series, and 5 ul of each enzyme or enzyme+pep263 (SEQ ID NO: 35) were combined with 45 ul of each substrate additive mixture. Plates were incubated for 3 minutes and then read on GMM+.
To test the effect of prolonged exposure to urea, each enzyme was diluted to 1 uM, and a two-fold titration series was prepared starting with 10M urea in 25 mM Tris pH 7.5+0.01% Tergitol. 2 ul of each enzyme was added to 198 ul of the urea titration (10 nM final of each enzyme). The “no” additive control was TBS+0.01% BSA+0.01% Tergitol. Samples were incubated for 26 hours. After incubation, samples were diluted 1:10,000 into TBS+0.01% BSA+0.01% Tergitol (10 ul in 990 ul two times). […] 50 ul of each sample was combined with 50 ul of NanoGlo® buffer+50 uM Furimazine. Plates were incubated for 3 minutes and then read on GMM+.

Effect of pH on activity = assay type: physicochemical; conditions: pH titration series of universal buffer
Protocol: A universal buffer was prepared containing 25 mM of each: NaCitrate, MES, PIPES, HEPES, TAPS, and Thiourea in 0.5% Tergitol. The buffer was divided into 8 aliquots of 20 ml, and NaOH or HCl was added to create a pH titration series.
To test effect of pH on activity, each enzyme was diluted to 1 uM and then diluted to 0.4 nM in 3 ml of TBS+0.01% BSA+0.01% Tergitol. […] Assay reagent for each pH buffer tested (Table 5) (20 ul of furimazine in 980 of buffer). 10 ul of each enzyme/peptide dilution was combined with 50 ul of assay reagent. Plates were incubated for 3 minutes and read on GMM+.
To test the effect of prolonged exposure varying pH, each enzyme was diluted to 1 uM in TBS+0.01% BSA+0.01% Tergitol, which was then diluted to 20 nM in each buffer. T=0 samples were mixed and then diluted 1:10 into 200 mM HEPES pH 7.5+0.01% BSA+0.01% Tergitol and stored at 4° C. T=8 samples were mixed and then diluted 1:10 into 200 mM HEPES pH 7.5+0.01% BSA+0.01% Tergitol store at 4° C. T=24 samples were mixed and then diluted 1:10 into 200 mM HEPES pH 7.5+0.01% BSA+0.01% Tergitol store at 4° C. […] 40 ul of each sample was diluted with 40 ul of NanoGlo® buffer+40 uM furimazine, incubated for 3 minutes, and then read on GMM+.

In the case of TNFα, the “EC50, titration of TNFα” value (p65; p65-HiBiT cell line transfected with LgBiT*-nuclear sensor) is reported as 0.7 ng/mL, the “Fold-response, titration of TNFα” value (p65; p65-HiBiT cells, LgBiT*-nuclear sensor) is reported as 4 fold and the “Time to reach maximum accumulation of p65 in the nucleus upon stimulation” value (p65) is reported as 30 min. The “Time to reach maximum accumulation of p65 in the nucleus upon stimulation” value (p65; listed as TNFa) was “approximately 30 min”.

B1: LgTrip 2098: β1-8-like polypeptide, SEQ ID NO: 17; SEQ ID NO: 31 with His tag (protein)
chain: MVFTLEDFVGDWEQTAAYNLDQVLEQGGVSSLLQNLAVSVTPIQRIVRSGENALKIDIHVIIPYEGLSADQMAQIEEVFKVVYPVDDHHFKVILPYGTLVIDGVTPNMLNYFGRPYEGIAVFDGKKITVTGTLWNGNKIIDERLITPD
With B1 the “Activation by separate β9 and β10 peptides” value [1] was “activated by the addition of SmTrip10 pep86 and SmTrip9 pep245”, the “Gain in signal in the presence of complementary peptide” value (SmTrip10 pep86 / pep263) was “greater” and the “Activity after prolonged (26 hour) exposure to urea” value ([2]; 26 hours incubation in urea titration) was “regain activity upon prolonged treatment with urea”. The “Activity in the presence of urea (susceptibility to inactivation)” value ([2]; urea titration from 10M, with pep263 for LgBiT and LgTrip) was “least effected by urea”.

B2: LgTrip: β1-8-like polypeptide corresponding to SEQ ID NO: 17; variants LgTrip 2098 and LgTrip 3546 (protein)
chain: B1 chain
For B2, the “Effect of pH on activity” value (Effect of pH on activity) was “resistant to a wide pH range”.
